# B1: N-term hAng2 (aa 1-254) (ligand)
# chain: YNNFRKSMDSIGKKQYQVQHGSCSYTFLLPEMDNCRSSSSPYVSNAVQRDAPLEYDDSVQRLQVLENIMENNTQWLMKLENYIQDNMKKEMVEIQQNAVQNQTAVMIEIGTNLLNQTAEQTRKLTDVEAQVLNQTTRLELQLLEHSLSTNKLEKQILDQTSEINKLQDKNSFLEKKVLAMEDKHIIQLQSIKEEKDQLQVLVSKQNSIIEELEKKIVTATVNNSVLQKQQHDLMETHHHHHH
# notes: also called N-terminal human Ang-2
# Molecular target: T1, Tie2-Fc (human, UniProt Q02763 23-748)
# T1 construct: extracellular domain; Bought reagent; Allophycocyanin-conjugated in the HTRF assay; also called hTie2-Fc; human Tie2-Fc; not shown: Fc portion of the bought Tie2-Fc
# T1 sequence (Q02763 23-748): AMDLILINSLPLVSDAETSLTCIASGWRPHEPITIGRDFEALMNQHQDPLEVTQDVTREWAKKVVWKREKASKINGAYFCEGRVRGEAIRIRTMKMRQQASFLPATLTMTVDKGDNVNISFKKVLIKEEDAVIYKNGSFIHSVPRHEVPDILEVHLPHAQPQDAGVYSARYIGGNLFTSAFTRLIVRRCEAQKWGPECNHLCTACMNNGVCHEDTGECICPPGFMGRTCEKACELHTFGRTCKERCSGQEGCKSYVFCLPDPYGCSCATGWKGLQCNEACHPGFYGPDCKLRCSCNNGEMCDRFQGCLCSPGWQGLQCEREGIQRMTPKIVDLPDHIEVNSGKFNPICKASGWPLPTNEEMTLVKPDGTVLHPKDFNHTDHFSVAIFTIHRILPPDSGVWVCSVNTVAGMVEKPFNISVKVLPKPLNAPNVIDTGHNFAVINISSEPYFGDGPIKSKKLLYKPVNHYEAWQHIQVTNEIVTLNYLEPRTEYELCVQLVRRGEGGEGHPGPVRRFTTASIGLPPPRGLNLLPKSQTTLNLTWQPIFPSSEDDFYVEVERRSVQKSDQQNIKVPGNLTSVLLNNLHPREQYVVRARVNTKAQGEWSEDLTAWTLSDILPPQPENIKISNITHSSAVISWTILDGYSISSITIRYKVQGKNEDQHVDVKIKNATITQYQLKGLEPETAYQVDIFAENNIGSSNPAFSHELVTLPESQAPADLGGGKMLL
# Experiment: ELISA at one concentration on conditioned medium with N-terminal hAng-2 (aa 1-254, 6xHis); O.D. 370; control pCDNA3 vector medium
# Procedure: The binding epitope of anti-Ang-2 antibodies and peptibodies was determined by their ability to bind the three versions of human hAng-2 by ELISA according to the following protocol: a high-binding 96-well assay plate was coated with 100 μl of conditioned media per well, and incubated at 37° C. for 1 hour. Conditioned media was aspirated, and the plate was blocked with 200 μl per well of 5% BSA in PBS at room temperature for 1 hour. The blocking solution was then aspirated. […] The wells were washed 4 times with 200 μl of 0.1% Tween in PBS. 100 μl per well of HRP-conjugated goat anti-human IgG or goat anti-mouse IgG were added, and incubated at room temperature for 45 minutes. The wells were then washed with 200 μl of 0.1% Tween in PBS 4 times. 100 μl per well of TMB substrate was then added. O.D. was read at 370 nm.
binder,measurement,value
B1,binding result,no binding (tested: 1 µg/ml)
